{"source": "paper PMC12324679", "key": {"[1]": {"tested_on": "PuPuf4 R111A F147A K368A (Pythium ultimum)", "assay": "MST", "settings": "MST: 50 mM Tris pH 7.5, 150 mM NaCl, 10 mM MgCl2, 0.05% Tween 20, 25 C; EMSA: Beyotime EMSA/Gel-Shift Binding Buffer, 50 ng RNA, 25 C 30 min, 1% agarose gel"}, "PuPuf4 (Pythium ultimum)": {"tested_on": "PuPuf4 (Pythium ultimum)", "assay": "MST", "settings": "MST: 50 mM Tris pH 7.5, 150 mM NaCl, 10 mM MgCl2, 0.05% Tween 20, 25 C; EMSA: Beyotime EMSA/Gel-Shift Binding Buffer, 50 ng RNA, 25 C 30 min, 1% agarose gel"}}, "data": [{"sequence": "GCCCAGUGCUCUGAAUGUCAAAGUGAAGAGAUUCACCAAGCGGCGGGUAAACGCG [H68 rRNA]", "values": [{"measurement": "Kd", "setting": "[1]", "value": 620, "unit": "nM"}, {"measurement": "Kd", "setting": "PuPuf4 (Pythium ultimum)", "value": 240, "unit": "nM"}]}]}
